Source: PMC4148193, “Chromatin Insulator Factors Involved in Long-Range DNA Interactions and Their Role in the Folding of the Drosophila Genome” (PLoS Genetics, 2014)

Columns and labels:
[1] = molecular target: T1, BEAF32 (BEAF32B);Chromator (Drosophila;Drosophila, UniProt Q94513;Q86BS3 1-282;1-926, |); experiment: FCS/PIE-FCCS; 800 nM BEAF32, 100 nM Chromator; cross-correlation 13±4%, 47±14% of complexes bridged; FA/FCS: 30 mM Tris/HCl pH 7.5, 100 mM NaCl, 20 uM ZnSO4, 5 mM mercaptoethanol, 0.01 mg/ml BSA, 0.004% Tween20, 2.5 nM DNA; EMSA: 150 mM NaCl, 30 mM Tris/HCl pH; conditions: protein: recombinant;recombinant; tags: N-term MBP; C-term 6xHis;N-term 6xHis; blunt
T1 sequence 1: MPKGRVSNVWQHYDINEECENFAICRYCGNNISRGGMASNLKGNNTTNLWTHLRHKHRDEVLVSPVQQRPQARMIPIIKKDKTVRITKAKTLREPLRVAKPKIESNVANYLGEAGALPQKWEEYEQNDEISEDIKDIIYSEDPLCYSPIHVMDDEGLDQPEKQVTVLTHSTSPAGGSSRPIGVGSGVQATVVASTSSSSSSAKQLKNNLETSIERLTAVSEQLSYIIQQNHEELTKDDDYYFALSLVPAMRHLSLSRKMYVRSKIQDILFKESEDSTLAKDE
T1 sequence 2: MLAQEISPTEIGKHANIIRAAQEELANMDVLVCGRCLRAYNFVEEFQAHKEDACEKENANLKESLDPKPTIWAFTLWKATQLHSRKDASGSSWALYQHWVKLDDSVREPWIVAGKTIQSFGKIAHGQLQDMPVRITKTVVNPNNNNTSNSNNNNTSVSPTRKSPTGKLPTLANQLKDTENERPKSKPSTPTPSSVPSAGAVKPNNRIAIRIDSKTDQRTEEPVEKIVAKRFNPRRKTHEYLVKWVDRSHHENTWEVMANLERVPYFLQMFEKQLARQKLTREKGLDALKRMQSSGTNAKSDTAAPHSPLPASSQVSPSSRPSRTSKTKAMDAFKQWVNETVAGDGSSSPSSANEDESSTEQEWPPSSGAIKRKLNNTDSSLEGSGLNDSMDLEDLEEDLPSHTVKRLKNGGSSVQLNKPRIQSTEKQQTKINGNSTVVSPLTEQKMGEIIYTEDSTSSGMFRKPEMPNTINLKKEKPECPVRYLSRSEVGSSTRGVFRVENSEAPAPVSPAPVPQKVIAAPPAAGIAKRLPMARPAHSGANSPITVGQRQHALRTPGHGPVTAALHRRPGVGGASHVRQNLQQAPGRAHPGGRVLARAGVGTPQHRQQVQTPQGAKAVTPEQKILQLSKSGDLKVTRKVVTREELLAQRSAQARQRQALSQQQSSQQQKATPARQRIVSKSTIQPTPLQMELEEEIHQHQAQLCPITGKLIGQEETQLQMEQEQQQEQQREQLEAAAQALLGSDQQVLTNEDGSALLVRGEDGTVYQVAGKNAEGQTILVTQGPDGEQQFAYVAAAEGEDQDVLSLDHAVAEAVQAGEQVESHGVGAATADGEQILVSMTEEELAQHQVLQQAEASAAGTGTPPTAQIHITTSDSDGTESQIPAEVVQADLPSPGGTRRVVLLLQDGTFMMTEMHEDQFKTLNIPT

[2] = molecular target: T2, BEAF32 (BEAF32B);CP190 (Drosophila;Drosophila, UniProt Q94513;Q24478 1-282;1-1096, |); experiment: FCS/PIE-FCCS; 400 nM BEAF32, 50 nM CP190; cross-correlation 18±6%, 65±22% of complexes bridged; FA/FCS: 30 mM Tris/HCl pH 7.5, 100 mM NaCl, 20 uM ZnSO4, 5 mM mercaptoethanol, 0.01 mg/ml BSA, 0.004% Tween20, 2.5 nM DNA; EMSA: 150 mM NaCl, 30 mM Tris/HCl pH; conditions: protein: recombinant;recombinant; tags: N-term MBP; C-term 6xHis;N-term 6xHis; blunt
T2 sequence 1: T1 sequence 1
T2 sequence 2: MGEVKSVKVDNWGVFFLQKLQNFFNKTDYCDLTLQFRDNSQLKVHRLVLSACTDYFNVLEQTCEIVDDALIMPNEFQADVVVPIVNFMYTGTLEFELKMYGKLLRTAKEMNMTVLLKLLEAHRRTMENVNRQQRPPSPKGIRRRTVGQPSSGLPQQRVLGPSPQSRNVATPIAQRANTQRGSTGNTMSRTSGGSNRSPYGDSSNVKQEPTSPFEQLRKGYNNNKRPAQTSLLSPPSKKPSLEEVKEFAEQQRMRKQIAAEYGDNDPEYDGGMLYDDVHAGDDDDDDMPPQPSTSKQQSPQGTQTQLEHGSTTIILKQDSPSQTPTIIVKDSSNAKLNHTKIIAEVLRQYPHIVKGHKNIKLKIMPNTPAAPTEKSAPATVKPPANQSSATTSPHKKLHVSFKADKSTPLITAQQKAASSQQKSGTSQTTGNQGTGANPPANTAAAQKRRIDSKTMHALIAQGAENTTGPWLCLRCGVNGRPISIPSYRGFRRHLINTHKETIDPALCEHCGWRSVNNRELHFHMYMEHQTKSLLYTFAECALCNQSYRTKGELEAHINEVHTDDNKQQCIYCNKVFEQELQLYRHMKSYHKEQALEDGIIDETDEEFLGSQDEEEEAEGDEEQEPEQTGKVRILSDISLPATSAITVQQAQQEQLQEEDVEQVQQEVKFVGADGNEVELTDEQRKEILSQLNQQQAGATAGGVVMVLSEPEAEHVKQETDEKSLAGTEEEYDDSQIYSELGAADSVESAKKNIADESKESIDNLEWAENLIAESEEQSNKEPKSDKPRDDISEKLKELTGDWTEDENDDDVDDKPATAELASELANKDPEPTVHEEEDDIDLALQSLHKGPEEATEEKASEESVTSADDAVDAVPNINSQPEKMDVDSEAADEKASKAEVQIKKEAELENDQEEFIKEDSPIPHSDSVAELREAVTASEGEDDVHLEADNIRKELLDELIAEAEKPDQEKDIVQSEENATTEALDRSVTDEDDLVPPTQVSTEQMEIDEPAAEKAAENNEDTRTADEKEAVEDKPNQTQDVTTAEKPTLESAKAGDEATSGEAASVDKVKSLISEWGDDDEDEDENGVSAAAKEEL

[3] = molecular target: T3, Chromator (Drosophila, UniProt Q86BS3 1-926); experiment: fluorescence anisotropy; Hill n=2±0.2; 20 uM ZnSO4; FA/FCS: 30 mM Tris/HCl pH 7.5, 100 mM NaCl, 20 uM ZnSO4, 5 mM mercaptoethanol, 0.01 mg/ml BSA, 0.004% Tween20, 2.5 nM DNA; EMSA: 150 mM NaCl, 30 mM Tris/HCl pH; conditions: protein: recombinant; tags: N-term 6xHis; blunt
T3 sequence: T1 sequence 2

B1: DNAS (dsDNA)
DNA 1: AGAAGTCAGCGCGATAGCATCGATATTTTCGTGACACGCTTGTCATCCGATAGGTAGT
DNA 2: ACTACCTATCGGATGACAAGCGTGTCACGAAAATATCGATGCTATCGCGCTGACTTCT
With B1 the binding result [1] was “binds”, the binding result [2] was “binds” and the Kd [3] was 360 ± 30 nM.
